Test results: patent US12416034B2, “Recombinant production of steviol glycosides” (EVOLVA SA, priority 2011, dated 2025)

Experiments:
[1] = In vitro transcribed and translated UGTs incubated with rubusoside, LC-MS; type: biochemical
Protocol: EUGT11 was produced by in vitro transcription and translation, and incubated with various substrates in the RebD pathway. Similar experiments were carried out using in vitro transcribed and translated UGT91D2e. […] Compounds 1-3 were identified solely by mass and expected retention time. The numbers shown in FIG. 3 are the average peak height of the indicated steviol glycoside obtained from a LC-MS chromatogram, and, although not quantitative, can be used to compare the activity of the two enzymes. […] Both enzymes were able to convert steviol 19-O-monoglucoside (SMG) to compound 1, with EUGT11 being about ten times more efficient than UGT91D2e at converting 19-SMG to compound 1.
The left panel of FIG. 5 contains LC-MS chromatograms of the conversion of rubusoside to stevioside. The right panel of FIG. 5 contains chromatograms of the conversion of rubusoside to stevioside, to compound 2, and to compound 3 (RebE). Conversion of rubusoside to compound 3 requires two consecutive 1, 2-O-glycosylations at the 19- and 13-positions of steviol.

[2] = Enzyme kinetics with RebA as substrate; type: biochemical; settings: Reb A
Protocol: A series of experiments were performed to determine kinetic parameters of EUGT11 and 91D2e-b. For both enzymes, 100 μM RebA, 300 μM UDP-glucose, and 10 U/mL Alkaline Phosphatase (Fermentas/Thermo Fisher, Waltham, MA) were used in the reactions. For EUGT11, the reactions were performed at 37° C. using 100 mM Tris-HCl, pH 7, and 2% enzyme. For 91D2e-b, the reactions were performed at 30° C. using 20 mM Hepes-NaOH, pH 7.6, 20% (by volume) enzyme. The initial velocities (V0) were calculated in the linear range of a product versus time plot.
To first investigate the linearity intervals, initial time-courses were done for each enzyme. EUGT11 was assayed at 37° C. for 48 h at initial concentrations of 100 μM RebA and 300 μM UDP-glucose. UGT91D2e-b was assayed at 37° C. for 24 h at initial concentrations of 200 μM RebA and 600 μM UDP-glucose. Based on these range-finding studies, it was determined that the initial 10 minutes in the case of EUGT11, and the initial 20 minutes in UGT91D2e-b would be in the linear range with respect to product formation, and therefore initial velocities of each reaction were calculated in those intervals. In the case of EUGT11, RebA concentrations assayed were 30 μM, 50 μM, 100 μM, 200 μM, 300 μM and 500 μM. Concentration of UDP-glucose was always three times the concentration of RebA and incubation was performed at 37° C. By plotting the calculated V0 as a function of the substrate concentrations, Michaelis-Menten curves were generated. By plotting the reciprocal of V0 and the reciprocal of [S], a Lineweaver-Burk graphic was obtained, with y=339.85x+1.8644; R^2=0.9759.
Vmax and KM parameters were determined from the curve-fit Lineweaver-Burk data, calculated from the x- and y intercepts (x=0, y=1/Vmax) and (y=0, x=−1/KM). Additionally, the same parameters also were calculated by a non-linear least squares regression, using the SOLVER function in Excel. The results obtained with both methods for EUGT11 and RebA are presented in Table 12, along with all the kinetic parameters of this example. Kcat is calculated based on Vmax divided by the approximate amount of protein in the assay.
In the case of UGT91D2e-b, RebA concentrations assayed were 50 μM, 100 μM, 200 μM, 300 μM, 400 μM and 500 μM. Concentration of UDP-glucose was always three times the concentration of RebA and incubation was performed at 30° C., in the reaction conditions described above for UGT91D2e-b. Additionally, kinetic parameters of UGT91D2e-b towards UDP-glucose were determined. UGT91D2e-b was incubated with increasing amounts of UDP-glucose (30 μM, 50 μM, 100 μM, and 200 μM), maintaining an excess of RebA (1500 μM). incubation was performed at 30° C., in optimal conditions for UGT91D2e-b.

B1: EUGT11: UDP glycosyl transferase from Oryza sativa (GenBank AC133334), SEQ ID NO:152 (protein, listed as Oryza sativa)
chain: MDSGYSSSYAAAAGMHVVICPWLAFGHLLPCLDLAQRLASRGHRVSFVSTPRNISRLPPVRPALAPLVAFVALPLPRVEGLPDGAESTNDVPHDRPDMVELHRRAFDGLAAPFSEFLGTACADWVIVDVFHHWAAAAALEHKVPCAMMLLGSAHMIASIADRRLERAETESPAAAGQGRPAAAPTFEVARMKLIRTKGSSGMSLAERFSLTLSRSSLVVGRSCVEFEPETVPLLSTLRGKPITFLGLMPPLHEGRREDGEDATVRWLDAQPAKSVVYVALGSEVPLGVEKVHELALGLELAGTRFLWALRKPTGVSDADLLPAGFEERTRGRGVVATRWVPQMSILAHAAVGAFLTHCGWNSTIEGLMFGHPLIMLPIFGDQGPNARLIEAKNAGLQVARNDGDGSFDREGVAAAIRAVAVEEESSKVFQAKAKKLQEIVADMACHERYIDGFIQQLRSYKD
In the case of B1, the “amount of compound 3 (RebE) produced from rubusoside” value [1] is reported as “significant amount”, the Kcat ([2]; Lineweaver-Burk plot) is reported as 0.14 s⁻¹ and the Km ([2]; Lineweaver-Burk plot) is reported as 182 µM. The Vmax ([2]; Lineweaver-Burk plot) was 0.54 µM/min, the Kcat ([2]; Nonlinear Least Square Fit) was 0.135 s⁻¹ and the Km ([2]; Nonlinear Least Square Fit) was 162 µM. It also gave a Vmax ([2]; Nonlinear Least Square Fit) of 0.52 µM/min.
